# T1: human CD94 expressed on cells (human primary NK cells in PBMCs; HEK cells expressing human CD94) (human, UniProt Q13241 1-179)
# T1 construct: whole, on cells; also called KLRD1; Natural killer cells antigen CD94
# T1 sequence (looked up): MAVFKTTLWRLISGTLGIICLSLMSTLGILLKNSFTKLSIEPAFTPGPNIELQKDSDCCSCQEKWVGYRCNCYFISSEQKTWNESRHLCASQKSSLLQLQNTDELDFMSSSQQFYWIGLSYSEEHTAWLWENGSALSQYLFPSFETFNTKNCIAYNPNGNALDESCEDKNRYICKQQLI
# T2: cynomolgus CD94 expressed on HEK293 cells (cynomolgus monkey, UniProt Q68VD4 1-179)
# T2 construct: also called cyno-CD94; cynomolgus monkey CD94
# T2 sequence: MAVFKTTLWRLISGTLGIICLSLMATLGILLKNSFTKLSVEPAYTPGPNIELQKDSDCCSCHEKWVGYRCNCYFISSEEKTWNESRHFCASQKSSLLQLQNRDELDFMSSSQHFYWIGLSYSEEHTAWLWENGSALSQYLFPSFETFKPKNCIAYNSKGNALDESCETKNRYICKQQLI
# How the values were obtained:
# [1] = target: T1, human CD94 expressed on cells (human …); assay: flow cytometry, HEK cells expressing human CD94, 1st run
# Description: (§1) Binding of the variant antibodies to HEK cells expressing human CD94 was also tested. Variants and ATX-130 antibodies were generated in human IgG1 form, and binding to HEK cells expressing human CD94 was assessed using flow cytometry. Experiments were run in duplicate, and the average EC50 of the 2 runs was calculated.
# [2] = target: T1, human CD94 expressed on cells (human …); assay: flow cytometry, HEK cells expressing human CD94, 2nd run
# Description: as §1
# [3] = target: T1, human CD94 expressed on cells (human …); assay: flow cytometry, HEK cells expressing human CD94, average of 2 runs
# Description: as §1
# [4] = target: T1, human CD94 expressed on cells (human …); assay: cell-based or functional assay
# [5] = target: T2, cynomolgus CD94 expressed on HEK293 …; assay: flow cytometry, hybridoma supernatant on cynomolgus CD94-expressing HEK293 cells
# From the text: (§2) Anti-CD94 hybridoma supernatants were screened on cynomolgus CD94-expressing HEK293 cells by flow cytometry for cross-reactivity to cynomolgus CD94. HP-3D9 is a commercial anti-CD94 antibody that was used as a negative control. Mouse IgG1, IgG2a, IgG2b and IgG3 were used as negative controls. […] Commercially available anti-CD94 antibodies were used to test cynomolgus cross-reactivity. 18H3 was used as a positive control. The MFI of each antibody was normalized to the MFI of its respective isotype.
# (§3) Cynomolgus CD94-expressing HEK293 cells were seeded in 96-well plates at a density of 100,000 cells per well, incubated with cell viability dye (Thermo Fisher) for 30 minutes on ice and protected from light. The cells were washed once with FACS buffer (PBS with 2% IgG low FBS). Hybridoma supernatants, anti-CD94 antibodies and isotype controls were incubated with cells for 30 minutes on ice and protected from light. […] After incubation, the cells received a final wash in FACS buffer before quantification on the Cytoflex (Beckman Coulter). All data acquisition and fluorescence compensation were performed using CytoFlex (Beckman Coulter, Atlanta, GA). […] CD94 expression was then quantified on this population. […]
# [6] = target: T1, human CD94 expressed on cells (human …); assay: flow cytometry titration on CD3-CD56+ NK cells in healthy donor PBMCs; 'Affinity on Human NK Cells'; the filing derives these affinities as EC50 of titration curves (the 2.6nM of 18H3 is labelled EC50 in FIG. 1)
# Description: Healthy donor PBMCs were seeded in 96 well plates at a density of 100,000 cells per well, incubated with human Fc block (Biolegend) and cell viability dye (Thermo Fisher) for 30 minutes on ice and protected from light. The cells were washed once with FACS buffer (PBS with 2% IgG low FBS). anti-CD94 antibodies at concentrations of 100 nM to 0.046 nM, 1:3-fold dilutions, were incubated with cells for 30 minutes on ice and protected from light. The cells were then washed and incubated with goat IgG anti-mouse Fey specific AF647 secondary antibody or goat (Fab)2 fragment anti-human Fey specific AF647 secondary antibody (Jackson immuno research), anti-CD3 pacific blue-labelled and anti-CD56 FITC-labelled antibodies (Biolegend) for 30 minutes on ice and protected from light. After incubation, the cells received a final wash in FACS buffer before quantification on the Cytoflex (Beckman Coulter). All data acquisition and fluorescence compensation were performed using CytoFlex (Beckman Coulter, Atlanta, GA). Data analysis was performed using FlowJo software. NK cells were identified through gating on lymphocytes on the forward and side scatter, followed by doublet and dead cell exclusion, and gated on the CD3−CD56+ population. CD94 expression was then quantified on the CD3−CD56+NK cell population. […]
# The affinity of the antibody clones was also assessed by flow cytometry analysis.
# [7] = target: T1, human CD94 expressed on cells (human …); assay: HLA-E tetramer blocking assay, flow cytometry on CD3-CD56+ NK cells in healthy donor PBMCs; antibody at one saturating concentration, blocked ligand PE-labelled HLA-E tetramer; percent blocking = 100-((percent HLA-E positive with antibody)/(percent HLA-E positive with isotype)*100)
# Description: Healthy donor PBMCs were incubated with anti-CD94 antibodies. PE labeled HLA-E tetramer was then incubated with the cell and antibody mixture, and detected using flow cytometry. For HP-3B1, 131412, 12K45, DX22, 1M4 and 1E4, 2.5 μl of HLA-E tetramer reagent was used, while 5 μl was used for 18H3 and HP-3D9. Saturating concentrations of each antibody was used in this assay. The percent blocking was calculated as 100−((percent HLA-E positive for anti-CD94 antibody)/(percent HLA-E positive for isotype)*100).
# Healthy donor PBMCs were seeded in 96-well plates at a density of 100,000 cells per well, incubated with human Fc block (Biolegend) and cell viability dye (Thermo Fisher) for 30 minutes on ice and protected from light. The cells were washed once with FACS buffer (PBS with 2% IgG low FBS). anti-CD94 antibodies at EC80 concentrations were incubated with cells for 30 minutes on ice and protected from light. After incubation with the anti-CD94 antibodies, the cells were washed and incubated with HLA-E tetramer PE (Creative Biolabs), anti-CD3 pacific blue-labelled, and anti-CD56 FITC-labelled antibodies (Biolegend) for 30 minutes on ice and protected from light. The cells then received a final wash in FACS buffer before quantification on the Cytoflex (Beckman Coulter). All data acquisition and fluorescence compensation were performed using CytoFlex (Beckman Coulter, Atlanta, GA). Data analysis was performed using FlowJo software. NK cells were identified through gating on lymphocytes on the forward and side scatter, followed by doublet and dead cell exclusion, and gated on the CD3−CD56+ population. HLA-E expression was then quantified on the CD3−CD56+NK cell population. Percent blocking was calculated as 100−((percent HLA-E positive for anti-CD94 antibody)/(percent HLA-E positive for isotype)*100).
# [8] = target: T2, cynomolgus CD94 expressed on HEK293 …; assay: flow cytometry, cynomolgus CD94-expressing HEK293 cells
# From the text: as §2, §3
EC50 [1] [nM],EC50 [2] [nM],EC50 [3] [nM],Binder,further results
0.18,0.13,0.16,"Ab.29 hG1 (antibody, V domains shown, Human IgG1 form; also called Ab.29 human IgG1) VH: EVQLLESGGGLVKPGGSLRLSCAASGFTFSSYSMNWVRQAPGKGLEWVSSISTSSNFIYYADSVKGRFTISRDNAKNSLYLQMNSLRAEDTAVYYCARDLGRYYYYMDVWGKGTTVTVSS VL: DIVMTQSPSSLSASVGDRVTITCRASQSISSWLAWYQQKPGKVPKSLIYAASSLQSGVPSKFSGSGSGTDFTLTISSLQPEDVATYYCQKYNSAPFTFGPGTKVDIK",–
0.1,0.12,0.11,"Ab.31 hG1 (antibody, V domains shown, Human IgG1 form; also called Ab.31 human IgG1) VH: EVQLLESGGGLVKPGGSLRLSCAASGFTFSSYSMNWVRQAPGKGLEWVSSISTSSNFIYYADSVKGRFTISRDNAKNSLYLQMNSLRAEDTAVYYCARDLGRYYYYMDVWGKGTTVTVSS VL: DIVMTQSPSSLSASVGDRVTITCRASQSISSWLAWYQQKPGKAPKSLIYAASSLQSGVPSRFSGSGSGTDFTLTISSLQPEDVATYYCQKYNSAPFTFGPGTKVDIK",–
0.25,0.13,0.19,"Ab.33 hG1 (antibody, V domains shown, Human IgG1 form; also called Ab.33 human IgG1) VH: EVQLLESGGGLVKPGGSLRLSCAASGFTFSSYSMNWVRQAPGKGLEWVSSISTSSNFIYYADSVKGRFTISRDNAKNSLYLQMNSLRAEDTAVYYCARDLGRYYYYMDVWGKGTTVTVSS VL: DIVMTQSPSSLSASVGDRVTITCRASQSISSWLAWYQQKPGKAPKSLIYAASSLQSGVPSKFSGSGSGTDFTLTISSLQPEDVATYYCQQYNSAPFTFGPGTKVDIK",–
0.16,0.13,0.15,"Ab.34 hG1 (antibody, V domains shown, Human IgG1 form; also called Ab.34 human IgG1) VH: EVQLLESGGGLVKPGGSLRLSCAASGFTFSSYSMNWVRQAPGKGLEWVSSISTSSNFIYYADSVKGRFTISRDNAKNSLYLQMNSLRAEDTAVYYCARDLGRYYYYMDVWGKGTTVTVSS VL: DIVMTQSPSSLSASVGDRVTITCRASQSISSWLAWYQQKPGKAPKSLIYAASSLQSGVPSKFSGSGSGTDFTLTISSLQPEDVATYYCQKYNSYPFTFGPGTKVDIK",–
0.12,0.11,0.12,"Ab.32 hG1 (antibody, V domains shown, Human IgG1 form; also called Ab.32 human IgG1) VH: EVQLLESGGGLVKPGGSLRLSCAASGFTFSSYSMNWVRQAPGKGLEWVSSISTSSNFIYYADSVKGRFTISRDNAKNSLYLQMNSLRAEDTAVYYCARDLGRYYYYMDVWGKGTTVTVSS VL: DIVMTQSPSSLSASVGDRVTITCRASQSISSWLAWYQQKPGKAPKSLIYAASSLQSGVPSKFSGSGSGTDFTLTISSLQPEDFATYYCQKYNSAPFTFGPGTKVDIK",–
–,–,–,"anti-CD94 antibody clone 1E4 (antibody, V domains shown, also called fucosylated 1E4) VH: QVTLRESGPALVKPTQTLTLTCTFSGFSLSTSDLCVSWIRQPPGKALEWLALIDWNDDKYYSTSLQTRLTISKDTSKNQVVLTMTNMDPVDTATYYCARTIAAAGPYDAFDIWGQGTMVTVSS VL: not shown","percent decrease in MFI (antibody internalization assay), comparing 0.5 hours to 24 hours at 37° C. [4]: 18%; binding result [5]: binds; EC50 [6]: 75 nM; HLA-E Blocking [7]: 0%"
–,–,–,"anti-CD94 antibody clone 1M4 (antibody, V domains shown) VH: QLVESGGGLVQPGGSLRLACAASGFTFSNYAMNWVRQAPGKGLEWVSVISGSGDTTYCADSVKGRFTISRDNSKNTLHLQLNSLRAEDTAVYYCAKNCYGSGSYYNHFDYWGQGTLVTVSS VL: not shown","percent decrease in MFI (antibody internalization assay), comparing 0.5 hours to 24 hours at 37° C. [4]: 32%; binding result [8]: binds; EC50 [6]: 7 nM; HLA-E Blocking [7]: 0%"
–,–,–,"18H3-KIF (partially non-fucosylated human IgG1 18H3 produced in Expi-CHO cells with kifunensine) (antibody, V domains shown) VH: EVQLVQSGAEVKKPGESLKISCKGSGYRFTSYWIGWVRQMPGKGLEWMGIIYPGDSDTRYSPSFQGQVIISADKSITTAFLQWSSLKASDTAMYYCARPFDYGGSPGYFDYWGQGTLVTVSS VL: DIQMTQSPSTLSASVGDRVTITCRASQSIRSWLAWYQQKPGKAPKLLIYKASSLESGVPSRFSGSGSGTEFTLTISSLQPDDFATYYCQQYNTFWTFGQGTKVEIK","IC50 of CLPD-NK leukemic cell depletion, ADCC assay with CLPD-NK patient PBMCs [4]: 0.059 µg/mL; IC50 of NK cell depletion, ADCC assay with healthy donor PBMCs [4]: 0.02 µg/mL"

# Source: patent US20250197505A1 (DREN BIO, published 2025)
